Here are results for 22 sequences from patent US20240376151A1, “STAPLED PEPTIDES AND METHODS THEREOF” (FOG PHARMACEUTICALS, INC., priority 2022, published 2024).

Numbered stars: 1 amine (or outer) side, 2 acyl side, 3 side chain; on linkers, the order of the positions; unused ones are H or OH. Bridge positions count the residues as written; N and C are the ends. Ends that are not written are not given here. Phenylene(1,4-NHCOCH2)2 = O=C(C[*:1])Nc1ccc(NC(=O)C[*:2])cc1

The target in this test is CDK2 (Homo sapiens, UniProt P24941). The test is described as follows: Phage Library Screening with NGS, CDK2. The conditions noted are these: for phage screen counts, Target Concentration 10: CDK2, target concentration 10; for phage screen counts, Target Concentration 30: CDK2, target concentration 30; for phage screen counts, Target Concentration 100: CDK2, target concentration 100; for phage screen counts, Target Concentration 300: CDK2, target concentration 300. It counts as binding. More on the design: Full length CDK2 (residues 1-298) with an N-terminal GST-3C-6×his-TEV tag; GST-3C-6×his-TEV (N, cleaved yes); made in house; host or cells: Sf9 (Bac-to-Bac baculovirus).

Setting [1] is: CDK2, target concentration 1000, first column.
Setting [2] is: CDK2, target concentration 1000, second column.

As to “DPAWWRCVVAALDCVDY (linker 7-14 via Phenylene(1,4-NHCOCH2)2 (inferred))”, the “phage screen counts, Target Concentration 10” value was found to be 0; the “phage screen counts, Target Concentration 30” value worked out at 12; the “phage screen counts, Target Concentration 100” value is on record as 8; the “phage screen counts, Target Concentration 300” value is listed as 262. For the same sequence, the “phage screen counts, Target Concentration 1000” value under setting [1] is 162. In addition, the “phage screen counts, Target Concentration 1000” value under setting [2] was 409.
For the sequence “PSCLSAFFSCY (linker 3-10 via Phenylene(1,4-NHCOCH2)2 (inferred))”, the “phage screen counts, Target Concentration 10” value was determined as 0; the “phage screen counts, Target Concentration 30” value is 1; the “phage screen counts, Target Concentration 100” value was determined as 0; the “phage screen counts, Target Concentration 300” value was 14. Further, under setting [1], the “phage screen counts, Target Concentration 1000” value came to 722. Besides, the “phage screen counts, Target Concentration 1000” value under setting [2] came to 485.
As for “CLDAFFACER (linker 1-8 via Phenylene(1,4-NHCOCH2)2 (inferred); not fully specified (C-terminus))”, the “phage screen counts, Target Concentration 10” value is recorded as 0; the “phage screen counts, Target Concentration 30” value was determined as 0; the “phage screen counts, Target Concentration 100” value was 0; the “phage screen counts, Target Concentration 300” value is reported as 4. Under setting [1], the “phage screen counts, Target Concentration 1000” value was determined as 7. Moreover, the “phage screen counts, Target Concentration 1000” value under setting [2] was found to be 408.
With DPAWWVCSIAAIECESS, the “phage screen counts, Target Concentration 10” value came out at 0; the “phage screen counts, Target Concentration 30” value was 0; the “phage screen counts, Target Concentration 100” value was 10; the “phage screen counts, Target Concentration 300” value turned out to be 85. Also, the “phage screen counts, Target Concentration 1000” value under setting [1] stood at 65. Further, the “phage screen counts, Target Concentration 1000” value under setting [2] is 77.
For the sequence “FECLDAFFSC (linker 3-10 via Phenylene(1,4-NHCOCH2)2 (inferred); not fully specified (N-terminus, C-terminus))”, the “phage screen counts, Target Concentration 10” value is listed as 0; the “phage screen counts, Target Concentration 30” value is given as 0; the “phage screen counts, Target Concentration 100” value is 0; the “phage screen counts, Target Concentration 300” value was 49. The “phage screen counts, Target Concentration 1000” value under setting [1] is 982. Besides, under setting [2], the “phage screen counts, Target Concentration 1000” value worked out at 405.
As to “DPAWYECIVAAIECVEY (linker 7-14 via Phenylene(1,4-NHCOCH2)2 (inferred))”, the “phage screen counts, Target Concentration 10” value is given as 0; the “phage screen counts, Target Concentration 30” value is 0; the “phage screen counts, Target Concentration 100” value worked out at 79; the “phage screen counts, Target Concentration 300” value was 131. The “phage screen counts, Target Concentration 1000” value under setting [1] came out at 54. Moreover, under setting [2], the “phage screen counts, Target Concentration 1000” value turned out to be 115.
Take “DPAWWRCSVAAIDCHWN (linker 7-14 via Phenylene(1,4-NHCOCH2)2 (inferred))”: the “phage screen counts, Target Concentration 10” value was determined as 0; the “phage screen counts, Target Concentration 30” value turned out to be 10; the “phage screen counts, Target Concentration 100” value worked out at 3; the “phage screen counts, Target Concentration 300” value is recorded as 93. Further, the “phage screen counts, Target Concentration 1000” value under setting [1] is 65. Besides, the “phage screen counts, Target Concentration 1000” value under setting [2] is on record as 230.
As to “CLSAFFMCSS (linker 1-8 via Phenylene(1,4-NHCOCH2)2 (inferred); not fully specified (C-terminus))”, the “phage screen counts, Target Concentration 10” value turned out to be 0; the “phage screen counts, Target Concentration 30” value amounted to 0; the “phage screen counts, Target Concentration 100” value is 0; the “phage screen counts, Target Concentration 300” value was 0. The “phage screen counts, Target Concentration 1000” value under setting [1] came out at 90. The “phage screen counts, Target Concentration 1000” value under setting [2] came out at 50.
Consider “PECLVAFFSCV (linker 3-10 via Phenylene(1,4-NHCOCH2)2 (inferred))”, for which the “phage screen counts, Target Concentration 10” value came out at 0; the “phage screen counts, Target Concentration 30” value worked out at 1; the “phage screen counts, Target Concentration 100” value turned out to be 9; the “phage screen counts, Target Concentration 300” value was 9. In addition, the “phage screen counts, Target Concentration 1000” value under setting [1] came to 422. For the same sequence, the “phage screen counts, Target Concentration 1000” value under setting [2] came to 142.
Consider “DPAWWTCIIAALECEEQ (linker 7-14 via Phenylene(1,4-NHCOCH2)2 (inferred))”, for which the “phage screen counts, Target Concentration 10” value stood at 0; the “phage screen counts, Target Concentration 30” value was 0; the “phage screen counts, Target Concentration 100” value amounted to 51; the “phage screen counts, Target Concentration 300” value is recorded as 193. The “phage screen counts, Target Concentration 1000” value under setting [1] is on record as 195. In addition, the “phage screen counts, Target Concentration 1000” value under setting [2] turned out to be 102.
With “PCLEAFFSCVY (linker 2-9 via Phenylene(1,4-NHCOCH2)2 (inferred))”, the “phage screen counts, Target Concentration 10” value was 0; the “phage screen counts, Target Concentration 30” value came out at 0; the “phage screen counts, Target Concentration 100” value was 0; the “phage screen counts, Target Concentration 300” value was found to be 61. For the same sequence, the “phage screen counts, Target Concentration 1000” value under setting [1] is recorded as 314. Moreover, under setting [2], the “phage screen counts, Target Concentration 1000” value came out at 257.
With “WSCLSAYFSC (linker 3-10 via Phenylene(1,4-NHCOCH2)2 (inferred))”, the “phage screen counts, Target Concentration 10” value came out at 0; the “phage screen counts, Target Concentration 30” value was found to be 0; the “phage screen counts, Target Concentration 100” value was determined as 0; the “phage screen counts, Target Concentration 300” value is 0. Also, the “phage screen counts, Target Concentration 1000” value under setting [1] was found to be 19. Further, the “phage screen counts, Target Concentration 1000” value under setting [2] was 189.
Take “DPAWWHCVIAALDCETQ (linker 7-14 via Phenylene(1,4-NHCOCH2)2 (inferred))”: the “phage screen counts, Target Concentration 10” value is recorded as 0; the “phage screen counts, Target Concentration 30” value was 15; the “phage screen counts, Target Concentration 100” value was 5; the “phage screen counts, Target Concentration 300” value turned out to be 93. For the same sequence, the “phage screen counts, Target Concentration 1000” value under setting [1] was 119. Further, the “phage screen counts, Target Concentration 1000” value under setting [2] stood at 141.
As to “DPAWWVCAVAAIECQEY (linker 7-14 via Phenylene(1,4-NHCOCH2)2 (inferred))”, the “phage screen counts, Target Concentration 10” value is reported as 3; the “phage screen counts, Target Concentration 30” value turned out to be 47; the “phage screen counts, Target Concentration 100” value was determined as 258; the “phage screen counts, Target Concentration 300” value worked out at 1258. Besides, under setting [1], the “phage screen counts, Target Concentration 1000” value worked out at 822. Also, under setting [2], the “phage screen counts, Target Concentration 1000” value is 819.
For “PFECLSAFFSC (linker 4-11 via Phenylene(1,4-NHCOCH2)2 (inferred))”, the “phage screen counts, Target Concentration 10” value amounted to 0; the “phage screen counts, Target Concentration 30” value is given as 0; the “phage screen counts, Target Concentration 100” value was determined as 0; the “phage screen counts, Target Concentration 300” value amounted to 1. Also, under setting [1], the “phage screen counts, Target Concentration 1000” value was determined as 212. In addition, the “phage screen counts, Target Concentration 1000” value under setting [2] came to 44.
Turning to “DPAWWSCVIAAMECQDI (linker 7-14 via Phenylene(1,4-NHCOCH2)2 (inferred))”, the “phage screen counts, Target Concentration 10” value stood at 0; the “phage screen counts, Target Concentration 30” value was 0; the “phage screen counts, Target Concentration 100” value is reported as 0; the “phage screen counts, Target Concentration 300” value came out at 39. The “phage screen counts, Target Concentration 1000” value under setting [1] is 87. Further, the “phage screen counts, Target Concentration 1000” value under setting [2] amounted to 90.
For the sequence “DPAWWRCSIAAMECHHD (linker 7-14 via Phenylene(1,4-NHCOCH2)2 (inferred))”, the “phage screen counts, Target Concentration 10” value is on record as 0; the “phage screen counts, Target Concentration 30” value came out at 0; the “phage screen counts, Target Concentration 100” value came out at 13; the “phage screen counts, Target Concentration 300” value was found to be 39. Under setting [1], the “phage screen counts, Target Concentration 1000” value came out at 119. Moreover, the “phage screen counts, Target Concentration 1000” value under setting [2] turned out to be 102.
Take “PECLEAFFDCR (linker 3-10 via Phenylene(1,4-NHCOCH2)2 (inferred))”: the “phage screen counts, Target Concentration 10” value is given as 0; the “phage screen counts, Target Concentration 30” value was found to be 9; the “phage screen counts, Target Concentration 100” value amounted to 0; the “phage screen counts, Target Concentration 300” value is 84. Moreover, under setting [1], the “phage screen counts, Target Concentration 1000” value is 344. Also, the “phage screen counts, Target Concentration 1000” value under setting [2] was determined as 328.
“DPAWWVCAIAAIECSDV (linker 7-14 via Phenylene(1,4-NHCOCH2)2 (inferred); not fully specified (N-terminus, C-terminus))”: the “phage screen counts, Target Concentration 10” value came out at 38; the “phage screen counts, Target Concentration 30” value is given as 634; the “phage screen counts, Target Concentration 100” value turned out to be 2330; the “phage screen counts, Target Concentration 300” value was 12368. Moreover, the “phage screen counts, Target Concentration 1000” value under setting [1] worked out at 7673. Besides, under setting [2], the “phage screen counts, Target Concentration 1000” value amounted to 8315.
As for “ECLSAFFTCV (linker 2-9 via Phenylene(1,4-NHCOCH2)2 (inferred))”, the “phage screen counts, Target Concentration 10” value amounted to 0; the “phage screen counts, Target Concentration 30” value is listed as 0; the “phage screen counts, Target Concentration 100” value was found to be 0; the “phage screen counts, Target Concentration 300” value is recorded as 57. In addition, under setting [1], the “phage screen counts, Target Concentration 1000” value is listed as 452. The “phage screen counts, Target Concentration 1000” value under setting [2] is 284.
Consider “DPAWWMCTIAAIECETT (linker 7-14 via Phenylene(1,4-NHCOCH2)2 (inferred))”, for which the “phage screen counts, Target Concentration 10” value is on record as 0; the “phage screen counts, Target Concentration 30” value is on record as 0; the “phage screen counts, Target Concentration 100” value stood at 73; the “phage screen counts, Target Concentration 300” value was found to be 973. Moreover, under setting [1], the “phage screen counts, Target Concentration 1000” value was found to be 909. The “phage screen counts, Target Concentration 1000” value under setting [2] amounted to 998.
Regarding “DPAWYACIVAAVDCEHS (linker 7-14 via Phenylene(1,4-NHCOCH2)2 (inferred))”, the “phage screen counts, Target Concentration 10” value is listed as 0; the “phage screen counts, Target Concentration 30” value worked out at 0; the “phage screen counts, Target Concentration 100” value amounted to 8; the “phage screen counts, Target Concentration 300” value turned out to be 46. Under setting [1], the “phage screen counts, Target Concentration 1000” value was determined as 206. Under setting [2], the “phage screen counts, Target Concentration 1000” value was determined as 115.
